Data taken from publication PMC11138481.

Columns and labels:
[1] = target: Flag-GAS41 H43S (human) (UniProt O95619); test: co-IP
[2] = target: GAS41 YEATS domain (residues 11–150) (human) (UniProt O95619); test: MST
GAS41 YEATS domain (residues 11–150) (human), sequence (O95619 11-150): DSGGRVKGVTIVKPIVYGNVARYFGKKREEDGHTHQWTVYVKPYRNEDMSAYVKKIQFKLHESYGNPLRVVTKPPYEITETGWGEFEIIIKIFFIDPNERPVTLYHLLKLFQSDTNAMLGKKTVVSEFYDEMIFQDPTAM

Flag-GAS41 H43S (human), sequence (O95619 whole entry H43S, the tested form may be a part): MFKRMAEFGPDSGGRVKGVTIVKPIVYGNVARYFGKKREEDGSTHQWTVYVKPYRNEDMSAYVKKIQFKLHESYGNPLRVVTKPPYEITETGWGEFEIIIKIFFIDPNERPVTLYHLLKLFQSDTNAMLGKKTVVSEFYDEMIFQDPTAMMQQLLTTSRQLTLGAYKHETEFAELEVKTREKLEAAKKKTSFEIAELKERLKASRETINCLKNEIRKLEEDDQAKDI

percent reduction of binding against Flag-GAS41 wt [1] | Kd [2] | Substance
> 60% |  | nucleosomal histone H3K27cr (endogenous) (from UniProt P68431 1-136) (natural protein)
 | 158 nM | H3K27cr nucleosome core particle (from UniProt P04908 1-130; P62805 1-103) (complex)
 | 913 nM | unmodified nucleosome core particle (from UniProt P04908 1-130; P62805 1-103) (complex)
 | 229 nM | H3K27ac nucleosome core particle (from UniProt P04908 1-130; P62805 1-103) (complex)
